Source: publication PMC2796841 (Integrative biology : quantitative biosciences from nano to …, 2009)

Tested on: tumor
Conditions: mouse, in vivo

With PAMAM-e9-xPLGLAG-r9-k(Cy5) the “time of maximal contrast after injection” value was 48 h.
